Measured values reported in patent US20240182908, “DEOXYRIBONUCLEOSIDE OR DEOXYRIBONUCLEOTIDE HAVING NOVEL ARTIFICIAL BASE APPLICABLE TO SCREENING FOR DNA APTAMER, AND NUCLEIC ACID CONTAINING THE SAME” (TAGCYX BIOTECHNOLOGIES INC., published 2024).
Read-outs that look alike come from different tables or passages of the source.

Key:
[1] = molecular target: T1, sIL-6R (soluble interleukin-6 receptor) (UniProt P08887 P08887:20-355); experiment: EMSA; PBS + 0.005% NP-40, room temperature; shift band lost
T1 sequence (P08887 20-355, one chain of several): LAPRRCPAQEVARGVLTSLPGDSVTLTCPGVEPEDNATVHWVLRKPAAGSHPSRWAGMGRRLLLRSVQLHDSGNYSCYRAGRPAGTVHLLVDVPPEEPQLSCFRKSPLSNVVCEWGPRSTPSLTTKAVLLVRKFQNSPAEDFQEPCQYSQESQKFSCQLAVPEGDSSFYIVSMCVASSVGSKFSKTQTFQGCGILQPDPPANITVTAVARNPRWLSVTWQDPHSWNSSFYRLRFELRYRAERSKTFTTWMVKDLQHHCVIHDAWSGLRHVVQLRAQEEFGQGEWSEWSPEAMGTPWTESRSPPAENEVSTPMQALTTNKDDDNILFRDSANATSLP
Method: (§1) The purified oligomer of the candidate sequence was added into the binding solution to adjust to 0.2 μM, and a folding operation (at 95° C. for 5 minutes→(−0.1° C./sec)→at 25° C.) was performed to form tertiary structures. Thereafter, sIL-6R was diluted with the binding solution to 0.2 μM and mixed with the folded DNA solution, and the resultant was incubated at room temperature for 30 minutes. The sample incubated was subjected to electrophoresis with 8% unmodified polyacrylamide gel to analyze on whether a band indicative of the DNA-protein complex could be detected. DNA was stained with SYBR Gold, and detected with blue light at 470 nm (two lanes in the left in FIG. 4).
Subsequently, to determine whether the novel artificial base dDsbn is involved in binding to sIL-6R, evaluation was performed with oligomers obtained by substituting dDsbn with dDs or dA (dDs-substituted form: T-00203, dA-substituted form: T-00204, see below for the sequences in Table 5). The oligomers were synthesized with a chemical synthesis method, and purified with an OPC (cartridge). For EMSA, a folding operation, reaction, and analysis with unmodified polyacrylamide were performed as described above (FIG. 4).

VEGF165 [2] = molecular target: T2, VEGF165 (UniProt P15692-4 P15692-4:27-191); experiment: EMSA; PBS + 0.005% NP-40, 37 C; shift band lost; details: chain copies: 2
T2 sequence (P15692 other isoform, or with tags, fused parts or gaps): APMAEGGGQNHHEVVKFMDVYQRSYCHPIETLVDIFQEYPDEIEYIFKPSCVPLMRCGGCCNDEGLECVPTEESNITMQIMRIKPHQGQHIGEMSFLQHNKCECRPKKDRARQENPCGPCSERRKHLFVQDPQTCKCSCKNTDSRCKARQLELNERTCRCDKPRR
Method: as §1, with “sequence (T-00199, see below for the sequence in Table 4)” for “sequence”, “VEGF165” for “sIL-6R”, “37° C.” for “room temperature”, “10%” for “8%”, “nm.” for “nm (two lanes in the left in FIG. 4).”
Subsequently, to determine whether the novel artificial base dDsbn is involved in binding to VEGF165, evaluation was performed with oligomers obtained by substituting dDsbn with dDs or dA (dDs-substituted form: T-00200, dA-substituted form: T-00201, see below for the sequences in Table 4). The oligomers were synthesized with a chemical synthesis method, and purified with an OPC (cartridge). For EMSA, a folding operation and reaction were performed as described above, and analysis was performed with unmodified polyacrylamide (in FIG. 2, dDs: two lanes in the center, dA: two lanes in the right).

[3] = molecular target: T1, sIL-6R (soluble interleukin-6 receptor); experiment: EMSA; PBS + 0.005% NP-40, room temperature; shift band lost; remark: listed apart in the source
Method: as §1, with “Analysis was performed by EMSA on whether the most concentrated candidate sequence binds to the target protein. First, an oligomer corresponding to the candidate sequence (T-00247, see below for the sequence in Table 9) was synthesized with a chemical synthesis method, and purified with an OPC (cartridge). The purified” for “The purified”, “(at 95° C., for 5” for “(at 95° C. for 5”, “solution to 0.6 μM and” for “solution to 0.2 μM and”, “at 470 nm.” for “at 470 nm (two lanes in the left in FIG. 4).”
(§2) Subsequently, to determine whether the novel artificial base dDscp is involved in binding to sIL-6R, evaluation was performed with oligomers obtained by substituting dDscp with dDs or dA (dDs-substituted form: T-00248, dA-substituted form: T-00249, see below for the sequences in Table 9). The oligomers were synthesized with a chemical synthesis method, and purified with an OPC (cartridge). […]

VEGF165 [4] = molecular target: T2, VEGF165; experiment: EMSA; PBS + 0.005% NP-40, 37 C; shift band lost; details: chain copies: 2; remark: listed apart in the source
Method: Analysis was performed by EMSA on whether the most concentrated candidate sequence binds to the target protein. First, an oligomer corresponding to the candidate sequence (T-00244, see below for the sequence in Table 8) was synthesized with a chemical synthesis method, and purified with an OPC (cartridge). The purified oligomer of the candidate sequence was added into the binding solution to adjust to 0.2 μM, and a folding operation (at 95° C., for 5 minutes→(−0.1° C./sec)→at 25° C.) was performed to form tertiary structures. Thereafter, VEGF165 was diluted with the binding solution to 0.2 μM and mixed with the folded DNA solution, and the resultant was incubated at 37° C. for 30 minutes. The sample incubated was subjected to electrophoresis with 8% unmodified polyacrylamide gel to analyze on whether a band indicative of the DNA-protein complex could be detected. DNA was stained with SYBR Gold, and detected with blue light at 470 nm.
as §2, with “VEGF165,” for “sIL-6R,”, “T-00245,” for “T-00248,”, “T-00246,” for “T-00249,”, “8).” for “9).”

B1: T-00204 (ssDNA)
DNA: CTCCATTGACTCGGCTTAAACTCCCAGGAGGTGGTGGGGGTGGGATTAGGGTTGGGATTGGAGGGGTGTCGGTCATATTGGGGTGCTCCTTGGCT
B1: no binding [1].

B2: T-00201 (ssDNA)
DNA: CTCCATTGACTCGGCTTAAACTCCCGTCAGTTATGAATAGGTACGCATGCGGAGTTCGCTACCCCGCCATGGTCATATTGGGGTGCTCCTTGGCT
B2: no binding (VEGF165 [2]).

B3: T-00249 (ssDNA)
DNA: GCGTGTTGAGCTGTATTAGGGTGTCAGGAAGGATTCGGGGGTGGATTTAGGGGGGGATCGTTGTGGAGGCGATACAATCCTGATCCATGAGACGG
B3: no binding [3].

B4: T-00246 (ssDNA)
DNA: GCGTGTTGAGCTGTATTAGGGTGTCAGGTTTTGGTCAGGCGTTCAAACGTAGAGGAATGGACACTTCGGCGATACAATCCTGATCCATGAGACGG
B4: no binding (VEGF165 [4]).
